This note sets out measurements from patent US20260284216 (published 2026).

Common to all, as to test: BLI
On the technique in general: BLI is a label-free optical method that tracks binding on a fibre tip over time.

The target of test [1] is TNF-alpha (human).
Another test has as its target T1, Trop2 (human, UniProt P09758).
T1 chain: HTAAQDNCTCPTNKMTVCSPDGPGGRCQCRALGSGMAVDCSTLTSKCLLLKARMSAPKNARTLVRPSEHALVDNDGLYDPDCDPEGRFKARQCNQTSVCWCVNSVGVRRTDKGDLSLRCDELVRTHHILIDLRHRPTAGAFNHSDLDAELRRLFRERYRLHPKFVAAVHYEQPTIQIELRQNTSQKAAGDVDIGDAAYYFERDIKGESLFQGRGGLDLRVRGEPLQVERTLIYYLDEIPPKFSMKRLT

Test [2] addresses T2, FAP (human, UniProt Q12884).
The target in test [3] is TNF-alpha (human). The source holds these as a separate data set.
In test [4] the target is T2, FAP. The source holds these as a separate data set.
Test [5] concerns the target TNF-alpha (human). This is another data set of the same source.

Substitutions are numbered along the chain they refer to. Read-outs that look alike come from different tables or passages of the source.

Usually Kd stands for the free concentration of one partner at which half of the binding sites on the other are occupied at equilibrium, for simple one-to-one binding.

TNF-alpha (human), sequence (chain, as listed by the source): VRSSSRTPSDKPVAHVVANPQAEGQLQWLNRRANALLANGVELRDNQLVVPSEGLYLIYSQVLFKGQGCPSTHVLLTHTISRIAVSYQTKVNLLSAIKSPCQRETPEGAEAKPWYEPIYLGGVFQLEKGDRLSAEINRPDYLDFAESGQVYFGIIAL
T2 sequence (Q12884 26-760): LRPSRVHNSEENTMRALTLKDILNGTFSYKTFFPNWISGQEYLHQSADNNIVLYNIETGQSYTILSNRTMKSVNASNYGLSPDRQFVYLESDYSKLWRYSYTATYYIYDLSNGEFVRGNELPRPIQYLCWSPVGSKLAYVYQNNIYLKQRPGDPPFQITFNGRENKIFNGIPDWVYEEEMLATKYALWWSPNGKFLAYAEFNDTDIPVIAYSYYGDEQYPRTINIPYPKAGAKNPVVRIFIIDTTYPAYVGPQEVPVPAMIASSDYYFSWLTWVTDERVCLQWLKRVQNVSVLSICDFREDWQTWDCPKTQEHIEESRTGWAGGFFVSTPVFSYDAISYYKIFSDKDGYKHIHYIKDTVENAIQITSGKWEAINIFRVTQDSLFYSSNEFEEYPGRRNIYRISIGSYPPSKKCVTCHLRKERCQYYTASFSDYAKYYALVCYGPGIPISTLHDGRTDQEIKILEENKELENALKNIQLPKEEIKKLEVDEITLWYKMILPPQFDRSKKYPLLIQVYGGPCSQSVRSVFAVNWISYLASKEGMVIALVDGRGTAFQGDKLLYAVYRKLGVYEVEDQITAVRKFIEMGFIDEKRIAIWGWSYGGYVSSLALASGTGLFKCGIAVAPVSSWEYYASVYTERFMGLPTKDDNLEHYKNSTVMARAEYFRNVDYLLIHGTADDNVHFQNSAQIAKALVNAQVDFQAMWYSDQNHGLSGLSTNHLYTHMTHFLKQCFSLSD

B1: TN01 (antibody, V domains shown)
VH: EVQLVESGGGLVQPGGSLRLSCAASGYVFTDYGMNWVRQAPGKGLEWMGWINTAYGSPDYADSVKGRFTFSLDTSKSTAYLQMNSLRAEDTAVYYCARGYRYYAMDYWGQGTLVTVSS
VL: DIQMTQSPSSLSASVGDRVTITCKASQNVGTNVAWYQQKPGKAPKALIYSASFLYSGVPYRFSGSGSGTDFTLTISSLQPEDFATYYCQQVGDYPLTFGQGTKVEIKR
Take B1: the figures for the Kd with TNF-alpha [1] and with Trop2 were 16.5 nM and 101 nM, respectively.

B2: FN15 (antibody, V domains shown)
VH: B1 VH with A54D, Y55N, S57T, D59Y, Y102S
VL: B1 VL with N28Y, V29T, G30Y, T31N, N32A, V91S, G92Y, D93G, P95L, L96V
As for B2, the Kd with FAP [2] came to 2.19 nM; with TNF-alpha [3] it was 25.7 nM; with FAP [4], 13.1 nM; in the test with TNF-alpha [5] it was 20.5 nM.
